The series addresses GST-Msi1 (Homo sapiens, UniProt O43347 1-362). In words: EMSA; GST-Msi1 ~1.5-9 uM; dose-dependent. The conditions noted are these: protein: recombinant; tags: N-terminal GST (pGEX 5X-2); label: fluorescein-12-UTP.

The record followed here is article PMC13036491, “RNA binding protein Musashi1 interacts with the viral genomic RNA and restricts SARS-CoV-2 infection by repressing translation”.

GST-Msi1, sequence (O43347 whole entry): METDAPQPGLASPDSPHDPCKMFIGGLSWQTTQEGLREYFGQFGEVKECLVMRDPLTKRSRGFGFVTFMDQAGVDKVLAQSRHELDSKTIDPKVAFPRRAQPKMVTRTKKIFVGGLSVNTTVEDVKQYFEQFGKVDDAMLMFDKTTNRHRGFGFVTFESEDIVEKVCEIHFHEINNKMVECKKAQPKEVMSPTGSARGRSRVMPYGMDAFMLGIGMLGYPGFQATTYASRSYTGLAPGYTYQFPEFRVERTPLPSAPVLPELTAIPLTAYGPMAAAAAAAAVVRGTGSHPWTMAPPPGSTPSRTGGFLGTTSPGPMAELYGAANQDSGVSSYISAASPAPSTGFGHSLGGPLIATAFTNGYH

B1: M2 RNA (HVR MBE) (ssRNA)
RNA: GGGAUUUUAGUAGUGCUAUCCCCA
Turning to B1, the binding result is reported as “binds”.
